Values joined by “and” are separate entries in the source; they are usually repeats but may differ in a detail not shown here. Equal entries are not always repeated.
Legend:
[1] = molecular target: recombinant soluble PSMA (rsPSMA) (human) (UniProt Q04609); test: Biacore, rsPSMA
[2] = molecular target: prostate specific membrane antigen (PSMA), full-length human (human) (UniProt Q04609); test: fraction of radiolabeled mAb bound, PSMA-3T3 cells
[3] = molecular target: prostate specific membrane antigen (PSMA), full-length human (human) (UniProt Q04609); test: average over PSMA-expressing cells
[4] = molecular target: prostate specific membrane antigen (PSMA), full-length human (human) (UniProt Q04609); test: cell-based or functional assay

Sequence of prostate specific membrane antigen (PSMA), full-length human (human) (Q04609 whole entry): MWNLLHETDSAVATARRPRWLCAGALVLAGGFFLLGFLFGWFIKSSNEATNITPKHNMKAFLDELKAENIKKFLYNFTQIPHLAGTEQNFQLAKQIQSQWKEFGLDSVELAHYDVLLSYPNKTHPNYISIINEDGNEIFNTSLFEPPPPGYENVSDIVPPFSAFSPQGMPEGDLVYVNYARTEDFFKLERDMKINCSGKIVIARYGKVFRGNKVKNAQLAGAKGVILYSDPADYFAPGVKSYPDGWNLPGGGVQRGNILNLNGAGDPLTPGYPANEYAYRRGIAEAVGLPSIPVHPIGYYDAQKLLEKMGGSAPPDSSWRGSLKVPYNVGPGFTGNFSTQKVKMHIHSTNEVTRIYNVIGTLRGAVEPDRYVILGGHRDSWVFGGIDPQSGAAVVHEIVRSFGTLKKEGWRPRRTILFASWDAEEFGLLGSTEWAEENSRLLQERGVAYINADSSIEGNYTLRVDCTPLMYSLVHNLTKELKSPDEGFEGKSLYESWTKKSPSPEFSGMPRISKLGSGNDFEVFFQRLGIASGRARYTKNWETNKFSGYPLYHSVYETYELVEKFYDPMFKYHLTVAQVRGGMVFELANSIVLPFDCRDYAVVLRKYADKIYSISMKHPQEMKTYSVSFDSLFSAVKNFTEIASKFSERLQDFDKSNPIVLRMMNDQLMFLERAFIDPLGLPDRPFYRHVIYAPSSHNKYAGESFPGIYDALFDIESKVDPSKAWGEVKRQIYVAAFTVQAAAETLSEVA
Sequence of recombinant soluble PSMA (rsPSMA) (human) (Q04609 44-750): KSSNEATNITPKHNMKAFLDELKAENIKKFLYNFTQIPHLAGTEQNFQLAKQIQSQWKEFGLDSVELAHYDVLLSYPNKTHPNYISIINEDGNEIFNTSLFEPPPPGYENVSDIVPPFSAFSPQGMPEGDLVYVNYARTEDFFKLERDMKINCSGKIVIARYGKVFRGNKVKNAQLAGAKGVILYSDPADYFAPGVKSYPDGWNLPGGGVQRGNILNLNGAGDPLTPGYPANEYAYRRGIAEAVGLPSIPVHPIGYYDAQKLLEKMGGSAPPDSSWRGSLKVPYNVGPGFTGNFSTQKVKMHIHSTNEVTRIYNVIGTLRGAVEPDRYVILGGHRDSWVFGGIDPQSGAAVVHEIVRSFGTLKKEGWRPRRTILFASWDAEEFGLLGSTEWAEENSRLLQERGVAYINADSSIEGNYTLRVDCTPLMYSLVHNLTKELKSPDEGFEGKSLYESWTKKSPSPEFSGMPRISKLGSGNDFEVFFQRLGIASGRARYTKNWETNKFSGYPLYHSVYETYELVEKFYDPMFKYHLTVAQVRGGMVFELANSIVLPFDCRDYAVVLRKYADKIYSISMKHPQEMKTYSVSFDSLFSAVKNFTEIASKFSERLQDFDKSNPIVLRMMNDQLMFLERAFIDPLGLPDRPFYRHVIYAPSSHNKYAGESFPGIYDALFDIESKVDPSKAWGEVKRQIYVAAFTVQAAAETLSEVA

Question: Control (Table 6, Biacore) (antibody) was tested. Which Kd [1] did it give?
Answer: Its Kd is 0.634 nM.

Question: For “^111In radiolabeled CHX-A″-DTPA mJ591 (antibody)”, which Immunoreactivity (%) [2] is on record?
Answer: The Immunoreactivity (%) was 58.5% and 54.9%.

Question: What about the Immunoreactivity (%) [3] of the same substance?
Answer: The Immunoreactivity (%) was 56.7%.

Question: For mAb J591 (murine) (antibody), which LD50, immunotoxin cytotoxicity (Mab-Zap saporin secondary) on C4-2 cells [4] is on record?
Answer: The LD50, immunotoxin cytotoxicity (Mab-Zap saporin secondary) on C4-2 cells was 88.2 pM.

Question: And the LD50, immunotoxin cytotoxicity (Mab-Zap saporin secondary) on PSMA-3T3 cells [4]?
Answer: Its LD50, immunotoxin cytotoxicity (Mab-Zap saporin secondary) on PSMA-3T3 cells is 89 pM.
